This note sets out measurements from patent US11098109B2, “Single-chain variable fragment anti-CD133 antibodies and uses thereof” (REGENTS OF THE UNIVERSITY OF MINNESOTA, priority 2010, dated 2021).

Data set [1] concerns the target T1, CD133 (Homo sapiens, UniProt O43490).
T1 construct: endogenous in cells
T1 sequence (O43490 20-865): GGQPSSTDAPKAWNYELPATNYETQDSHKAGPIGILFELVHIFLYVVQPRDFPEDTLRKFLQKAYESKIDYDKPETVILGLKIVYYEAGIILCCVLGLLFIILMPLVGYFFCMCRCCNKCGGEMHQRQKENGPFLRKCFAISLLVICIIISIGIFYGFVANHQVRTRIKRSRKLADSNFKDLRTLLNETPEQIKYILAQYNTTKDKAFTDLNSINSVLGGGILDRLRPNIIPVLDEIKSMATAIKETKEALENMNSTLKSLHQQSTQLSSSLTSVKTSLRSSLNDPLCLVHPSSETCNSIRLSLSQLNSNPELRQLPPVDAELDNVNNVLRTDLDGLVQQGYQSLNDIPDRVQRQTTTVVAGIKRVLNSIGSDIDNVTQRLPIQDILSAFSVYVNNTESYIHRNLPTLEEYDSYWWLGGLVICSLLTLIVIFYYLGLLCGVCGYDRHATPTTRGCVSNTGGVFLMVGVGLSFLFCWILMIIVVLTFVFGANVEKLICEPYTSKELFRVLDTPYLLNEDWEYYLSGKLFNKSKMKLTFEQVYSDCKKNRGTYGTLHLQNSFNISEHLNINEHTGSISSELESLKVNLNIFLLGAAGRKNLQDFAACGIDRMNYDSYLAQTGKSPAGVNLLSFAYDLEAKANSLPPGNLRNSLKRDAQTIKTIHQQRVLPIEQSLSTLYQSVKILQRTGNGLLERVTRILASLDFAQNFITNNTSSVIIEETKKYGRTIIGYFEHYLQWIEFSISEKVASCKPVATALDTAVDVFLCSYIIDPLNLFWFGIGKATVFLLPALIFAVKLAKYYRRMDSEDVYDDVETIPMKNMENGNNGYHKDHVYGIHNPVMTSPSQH
Nature of the data set: Flow cytometry of FITC-labeled CD133scFv on CD133-transfected HEK293-TLR2 cells. The data set is classed as binding. Conditions: CD133-transfected vs control HEK293-TLR2 cells; listed as CD133scFv. The protocol:
FIG. 4: CD133scFV recognizes the CD133 marker. The CD133scFv was labeled with FITC. An oligonucleotide was prepared from the known GenBank sequence of CD133 and then transfected into HEK293-TLR2 cells using a polyethylenimine (PEI)-DNA complex. The cells were incubated with anti-CD133scFv-FITC complex, washed, and then analyzed by flow cytometry. Data are represented in standard histogram format whereby % positive cells are plotted against fluorescence intensity. […] Controls include transfected cells reacted with empty vector, transfected cells reacted with an isotype control, or untransfected cells that are not reacted with CD133-FITC.
Ult-Luc or CMV-CD133 pDNA constructs were transfected into HEK293-TLR2 cells using JetPEI transfection reagent according to the manufacturer's instructions (Polyplus Transfection). Briefly, 7.5×10^5 cells/well were seeded in a 6-well plate. Twelve hours later, 2.5 μg of each pDNA were diluted in 5 μl 5% dextrose and mixed with 0.35 μL JetPEI also in 5 μl 5% dextrose. Following incubation for 15 minutes, the transfection mix was added to the cells. […]
CD133scFv was labeled with FITC at a FITC:scFv ratio of 24:1 (Invitrogen, Carlsbad, Calif.) and dialyzed to remove any free unbound FITC. […] Data are represented in standard histogram format whereby % positive cells are plotted against fluorescence intensity. […]
(In general: A flow cytometer gives signals particle by particle.)

For data set [2], the target named is T1, CD133. Kind of data set: Immunohistochemistry of human glioma and kidney tissue sections. The data set is classed as binding. The method, then: 5 μm paraffin sections of human kidney or glioblastoma tissue were mounted onto charged slides. The sections were deparaffinized and rehydrated using standard methods, rinsed in running tap-water and placed in a PBS bath for five minutes. The slides were then incubated in a pre-heated steamer bath with staining dish containing EDTA buffer (pH 8.0) for 30 minutes and then cooled for 20 minutes. The slides were washed with PBS (pH 7.4) for minimum of five minutes and then subjected to following incubation steps: blocking with serum-free background Sniper (Biocare Medical. Concord, Calif.), primary antibody at a 1:200 dilution of hybridoma supernatant at 4° C. overnight, Leica Bond post primary. Leica Bond polymer, and DAB chromagen developer. The sections were rinsed well, counterstained with hematoxylin, dehydrated, sealed with a cover slip and imaged.

The test system of a further data set is CD133^+ Caco-2 cells. Nature of the data set: Immunofluorescence of fixed Caco-2 cells with hybridoma supernatants. It is filed as binding, human. The following applies: hybridoma supernatant. The method, then: FIG. 2: Analysis of the newly generated CD133 hybridoma. Supematants of hybridoma clones were tested as a primary antibody in western blot (A) and Immunofluorescence (B) assays. Pre-immunized serum (-ve) or post immune anti sera (a.s.) served as controls. For western blot, Caco-2 lysates normalized for protein concentration were loaded onto a SDS-PAGE gel, resolved, blotted onto a nitrocellulose membrane and cut into strips. Each strip was probed with supernatant from the identified hybridoma. Membrane in Lane 1 was probed with a commercially available antibody (ab 19898, Abcam) and served as an additional positive control. For immunofluorescence, Caco-2 cells were fixed and immunostained with the hybridoma supernatants. A commercially available antibody (293C3, Militenyi) was used as additional positive control. Scale bars in the panel represent 200 micrometers. Supernatant of Hybridoma Clone 7 was used in the immunohistochemical analysis of primary glioblastoma and kidney tissue (C).
Caco-2 cells were plated in 16-well chamber slides. After four days of growth, the cells were fixed with 4% paraformaldehyde, washed in DPBS and then incubated in 200 mM glycine for 10 minutes. The cells were then blocked with a solution of 0.5% BSA and 0.2% gelatin in PBS for 10 minutes. […] The cells were further washed with PBS and then visualized under a fluorescence microscope. […]

Entries after “also recorded” stand apart in the source; their conditions may differ.

B1: No. 11 scFv: soluble scFv of the Hybridoma Clone 7 antibody expressed in E. coli Top10F', SEQ ID NO:58; also used FITC-labeled (protein)
scFv: MDIVLSQSPAIMSASPGEKVTISCSASSSVSYMYWYQQKPGSSPKPWIYRTSNLASGVPARFSGSGSGTSYSLTISSMEAEDAATYYCQQYHSYPPTFGAGTKLELKSSGGGGSGGGGGGSSRSSLEVKLVESGPELKKPGETVKISCKASGYTFTDYSMHWVNQAPGKGLKWMGWINTETGEPSYADDFKGRFAFSLETSASTAYLQINNLKNEDTATYFCATDYGDYFDYWGQGTTLTVSS
modifications: optionally FITC-labeled; scFv polypeptide
For B1, the “reaction of FITC-labeled scFv with cells” value with CD133 [1] is on record as “Only the CD133-transfected cells reacted; also recorded: Only the CD133 transfected cells reacted”.

B2: Hybridoma Clone 7: monoclonal antibody produced by Hybridoma Clone 7 that specifically binds to human CD133 (antibody, V domains shown)
VL: DIVLSQSPAIMSASPGEKVTISCSASSSVSYMYWYQQKPGSSPKPWIYRTSNLASGVPARFSGSGSGTSYSLTISSMEAEDAATYYCQQYHSYPPTFGAGTKLELK
VH: LEVKLVESGPELKKPGETVKISCKASGYTFTDYSMHWVNQAPGKGLKWMGWINTETGEPSYADDFKGRFAFSLETSASTAYLQINNLKNEDTATYFCATDYGDYFDYWGQGTTLTVSS
Regarding B2, in the data set with CD133 [2], the immunohistochemical staining result was “membrane-specific staining”. The “immunofluorescence staining of the Caco-2 cell membrane” value in the data set on CD133^+ Caco-2 cells is reported as “robustly stained”.
